Data on three molecules can be found in patent US20150073033A1 (University of Texas, published 2015).

One assay has as its target endogenous Bub1 (human, UniProt O43683 1-1085). Briefly: co-IP, HeLa cells.
Assay [1] deals with T1, endogenous IKKβ (U87/EGFR or U251 cells) (human, UniProt O14920 1-756).
T1 sequence (looked up): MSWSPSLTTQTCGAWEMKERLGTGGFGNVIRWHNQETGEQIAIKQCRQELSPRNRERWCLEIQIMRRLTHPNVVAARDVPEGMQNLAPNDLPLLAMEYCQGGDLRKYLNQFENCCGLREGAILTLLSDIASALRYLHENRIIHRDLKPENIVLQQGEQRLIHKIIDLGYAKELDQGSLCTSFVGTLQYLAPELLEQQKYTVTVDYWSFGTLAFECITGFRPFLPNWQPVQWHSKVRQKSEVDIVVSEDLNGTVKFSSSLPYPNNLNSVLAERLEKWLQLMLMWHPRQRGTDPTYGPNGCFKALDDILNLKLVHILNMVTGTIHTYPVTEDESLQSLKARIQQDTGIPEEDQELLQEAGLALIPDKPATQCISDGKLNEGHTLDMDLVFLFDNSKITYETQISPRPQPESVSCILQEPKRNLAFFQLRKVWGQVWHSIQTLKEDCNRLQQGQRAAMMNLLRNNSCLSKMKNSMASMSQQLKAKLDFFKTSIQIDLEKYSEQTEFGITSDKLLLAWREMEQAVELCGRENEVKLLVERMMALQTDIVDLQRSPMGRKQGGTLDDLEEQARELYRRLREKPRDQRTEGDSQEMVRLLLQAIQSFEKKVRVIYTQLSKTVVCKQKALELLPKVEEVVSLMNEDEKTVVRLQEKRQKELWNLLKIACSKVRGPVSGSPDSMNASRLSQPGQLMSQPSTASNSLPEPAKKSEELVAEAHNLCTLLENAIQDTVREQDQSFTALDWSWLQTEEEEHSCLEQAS
Briefly: IP of PKCζ, anti-IKKβ immunoblot, EGF-treated cells.

Assay [2] addresses T2, purified recombinant GST-Bub1 (UniProt O43683 1-1085, limits assumed).
T2 construct: Bacterially purified; not shown: GST
Kind of assay: GST pull-down, purified recombinant proteins. Here is the method: Nuclei were stained with DAPI (blue). […] A GST pull-down assay was performed.

Chain of endogenous Bub1 (O43683 whole entry): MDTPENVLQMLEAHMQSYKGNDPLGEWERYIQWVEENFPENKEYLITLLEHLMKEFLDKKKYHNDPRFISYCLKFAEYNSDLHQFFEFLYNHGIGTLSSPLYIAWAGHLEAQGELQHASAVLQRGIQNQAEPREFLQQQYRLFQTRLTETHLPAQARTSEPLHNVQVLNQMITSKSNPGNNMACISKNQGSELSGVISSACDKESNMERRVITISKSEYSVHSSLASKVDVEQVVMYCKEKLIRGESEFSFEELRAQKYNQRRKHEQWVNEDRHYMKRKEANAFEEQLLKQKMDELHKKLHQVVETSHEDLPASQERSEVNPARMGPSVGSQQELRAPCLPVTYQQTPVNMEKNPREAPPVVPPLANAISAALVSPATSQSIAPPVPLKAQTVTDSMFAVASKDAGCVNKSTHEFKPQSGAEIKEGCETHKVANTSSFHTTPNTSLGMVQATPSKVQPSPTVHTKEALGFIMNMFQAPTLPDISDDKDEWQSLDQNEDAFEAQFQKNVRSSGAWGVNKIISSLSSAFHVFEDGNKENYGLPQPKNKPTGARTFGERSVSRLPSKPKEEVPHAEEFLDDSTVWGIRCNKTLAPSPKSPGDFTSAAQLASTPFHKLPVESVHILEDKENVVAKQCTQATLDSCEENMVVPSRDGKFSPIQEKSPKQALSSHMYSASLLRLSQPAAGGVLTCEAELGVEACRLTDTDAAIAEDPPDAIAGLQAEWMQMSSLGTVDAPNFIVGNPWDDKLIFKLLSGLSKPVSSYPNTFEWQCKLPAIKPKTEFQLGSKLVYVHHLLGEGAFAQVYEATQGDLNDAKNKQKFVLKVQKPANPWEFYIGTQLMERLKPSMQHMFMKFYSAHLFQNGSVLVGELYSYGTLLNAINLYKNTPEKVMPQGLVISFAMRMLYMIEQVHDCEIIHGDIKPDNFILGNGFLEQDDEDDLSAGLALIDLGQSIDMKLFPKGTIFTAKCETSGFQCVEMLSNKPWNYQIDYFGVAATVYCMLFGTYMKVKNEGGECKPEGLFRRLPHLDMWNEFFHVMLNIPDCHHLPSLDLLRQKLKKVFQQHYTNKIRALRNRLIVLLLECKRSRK
T2 sequence (O43683 whole entry): as above

B1: endogenous PKM1 (enzyme)
chain: not shown
notes: Looked for in Bub3-Bub1 immunoprecipitates
For the molecule B1, in the assay with endogenous Bub1, the binding result is reported as “no binding”.

B2: endogenous PKCζ (enzyme, human, UniProt Q05513 1-592, looked up)
chain: MPSRTGPKMEGSGGRVRLKAHYGGDIFITSVDAATTFEELCEEVRDMCRLHQQHPLTLKWVDSEGDPCTVSSQMELEEAFRLARQCRDEGLIIHVFPSTPEQPGLPCPGEDKSIYRRGARRWRKLYRANGHLFQAKRFNRRAYCGQCSERIWGLARQGYRCINCKLLVHKRCHGLVPLTCRKHMDSVMPSQEPPVDDKNEDADLPSEETDGIAYISSSRKHDSIKDDSEDLKPVIDGMDGIKISQGLGLQDFDLIRVIGRGSYAKVLLVRLKKNDQIYAMKVVKKELVHDDEDIDWVQTEKHVFEQASSNPFLVGLHSCFQTTSRLFLVIEYVNGGDLMFHMQRQRKLPEEHARFYAAEICIALNFLHERGIIYRDLKLDNVLLDADGHIKLTDYGMCKEGLGPGDTTSTFCGTPNYIAPEILRGEEYGFSVDWWALGVLMFEMMAGRSPFDIITDNPDMNTEDYLFQVILEKPIRIPRFLSVKASHVLKGFLNKDPKERLGCRPQTGFSDIKSHAFFRSIDWDLLEKKQALPPFQPQITDDYGLDNFDTQFTSEPVQLTPDDEDAIKRIDQSEFEGFEYINPLLLSTEESV
In the case of B2, the binding result in assay [1] is recorded as “no binding”.

B3: purified recombinant His-PKM2 (wild type) (enzyme)
chain: not shown
notes: Expressed in bacteria and purified; unphosphorylated; also called WT PKM2; WT His-PKM2
Take B3: in assay [2], the binding result is “no binding”.
